Target: OMCP
Experiment: method not stated

B1: human NKG2D (Example 21) (receptor)
chain: NSLFNQEVQIPLTESYCGPCPKNWICYKNNCYQFFDESKNWYESQASCMSQNASLLKVYSKEDQDLLKLVKSYHWMGLVHIPTNGSWQWEDGSILSPNLLTIIEMQKGDCALYASSFKGYIENCSTPNTYICMQRTV
**Q.** How did the Kd turn out when B1 was run?
**A.** Its Kd is 0.1 nM.

— patent publication US20210284706A1 (published 2021)
